How the values were obtained:
Assay in all cases: peptide ELISA
[1] = target: HKU4 HR2 peptide (HKU4), A3EX94
[2] = target: HKU5 HR2 peptide (HKU5), A3EXD0
[3] = target: HKU9 HR2 peptide (HKU9), A3EXG6
[4] = target: MHV HR2 peptide (MHV)
[5] = target: SARS-CoV-2 HR2 peptide (SARS-CoV-2), P0DTC2
[6] = target: 229E FP peptide (229E)
[7] = target: HKU1 FP peptide (HKU1)
[8] = target: Hu_PDCoV FP peptide (Hu_PDCoV)
[9] = target: MERS FP peptide (MERS), K9N5Q8
[10] = target: NL63 FP peptide (NL63), Q6Q1S2
[11] = target: OC43 FP peptide (OC43), P36334
[12] = target: SARS-CoV FP peptide (SARS-CoV), P59594
[13] = target: SARS-CoV-2 FP peptide (SARS-CoV-2)
[14] = target: FCoV-KU2 FP peptide (FCoV-KU2)
[15] = target: CCoV_HuPn FP peptide (CCoV_HuPn)
[16] = target: SADS HR2 peptide (SADS)

Row | Binder | EC50 [1] | EC50 [2] | EC50 [3] | EC50 [4] | EC50 [5] | EC50 [6] | EC50 [7] | EC50 [8] | EC50 [9] | EC50 [10] | EC50 [11] | EC50 [12] | EC50 [13] | EC50 [14] | EC50 [15] | EC50 [16]
1 | hr2.094 (antibody, V domains shown) VH: EVQLVESGGGLVQPGGSLRLSCAASGFTFSTFWMTWVRQAPGKGLEWVANIKSDGSEKYYVDSVKGRFTISRDNAKNSLYLQMNSLRAEDTAVYYCATWFGLHWGQGTLVTVSS VL: DIVMTQSPDSLAVSLGERASINCKSSQTVLYSSNNKNYLAWYQQKPGQPPKLLIHWASTRDSGVPDRFSGSGSGTDFTLTISSLQAEDVAVYYCQQYHRIPWTFGRGTKVEIK | 0.0157 µg/mL | 0.0192 µg/mL | 0.227 µg/mL | 0.0189 µg/mL | 0.0835 µg/mL | – | – | – | – | – | – | – | – | – | – | –
2 | fp.004 (antibody, V domains shown) VH: VQLVESGGGVVQPGTSLRLSCVASGFTFSNYAMHWVRQAPGKGLEWVAIISFDTRNTASAASVKGRFNISRDNSKNSLYLQMNSLRPEDTGVYYCARDLFLSDYDSRGYDPITGGFDCWGQGTLVTVSS VL: EIVMTQSPAALSVSPGEGATLSCRASQSVGSRLAWYQQKLGRPPRLLIYGASTRATGIPARFSGSGSGTEFTLTISSLQSEDFAVYYCQQYNDWPLLTFGGGTKVKIK | – | – | – | – | – | 0.0202 µg/mL | 0.0272 µg/mL | 0.0343 µg/mL | 0.0386 µg/mL | 0.0267 µg/mL | 0.0222 µg/mL | 0.03 µg/mL | 0.0352 µg/mL | – | – | –
3 | CV3-25 (antibody) chain 1: QVQLVESGAEVKKPGESLKISCKGSGYTFTRYWIGWVRQMPGKGLEWMGIIYPGDSDTRYSPSFQGHVTISADKSISTAYLQWNSLKASDTAMYYCARLPQYCSNGVCQRWFDPWGQGTLVTVSS chain 2: EIVLTQSPSSVSASVGDRVTITCRASQGISSWLAWYQQKPGKAPKLLIYAASSLQSGVPSRFSGSGSGTDFTLTISSLQPEDFATYYCQQGNSFPYTFGQGTNLEIK | – | 1.57 µg/mL | 0.358 µg/mL | 0.0239 µg/mL | 0.00968 µg/mL | – | – | – | – | – | – | – | – | – | – | –
4 | fp.002 (antibody, V domains shown) VH: VQLVESGGGVVQPGTSLRLSCAGSGFNFDNYAIHWVRQAPGQGLEWVAIISYEARNKKYAGSVTGRFSISRDNSKSMVYLQMDSLRGEDTAVYYCARDLFLSDYDRSGYDPTRGGFDLWGQGTLVTVSS VL: EIVMTQSPATLSVSPGERATLSCRASQSVSSSLAWYQHKLGQAPRLLIYGASTRATGIPGRFSGSGSGTEFTLTISSLQSEDVAIYYCQQYGDWPLVTFGGGTKVEIK | – | – | – | – | – | 0.0176 µg/mL | 0.0256 µg/mL | 0.0215 µg/mL | 0.0358 µg/mL | 0.0245 µg/mL | 0.0211 µg/mL | 0.0285 µg/mL | 0.032 µg/mL | – | – | –
5 | fp.006 (antibody, V domains shown) VH: VQLVESGGGVVQPGGSLRLSCAASGFNFNNYALHWVRQAPGKGLEWVAIISYEARNKKYGVSVMGRFSISRDNSKSIMYLEMNSLRVEDTGVYYCARDLFLSDYDRSGYDPTRGGFDHWGQGTLVTVSS VL: EIVMTQSPATLSVSPGERATLSCRASQSVSSSLAWYQHRFGQAPRLLISGASTRATGIPGRFSGSGSGTEFTLTISSLQSEDVAVYYCQQYGDWPLVTFGGGTKVEIK | – | – | – | – | – | 0.0121 µg/mL | 0.0168 µg/mL | – | 0.0228 µg/mL | 0.0144 µg/mL | 0.0134 µg/mL | 0.0157 µg/mL | 0.0331 µg/mL | 0.0149 µg/mL | – | –
6 | fp.005 (antibody, V domains shown) VH: VQLVESGGGVVQPGNSLRLSCAASGFRFNNYAMHWVRQAPGKGLEWVAIISYEARNEKYADSVKGRFSISRDNAKNTLYLQMNSLRADDTGVYYCARDLFLSDYDTSGYDRTRGGFDYWGQGALVTVSS VL: EIVMTQSPATLSVSPGERATLSCRASQSVSNGLAWYQHRFGQPPRLLIYGASTRATGIPTRFSGSGSGTEFTLTISSLQSEDFAVYYCQQYDDWPLITFGGGTKVEIK | – | – | – | – | – | 0.0175 µg/mL | – | – | 0.04 µg/mL | 0.0231 µg/mL | 0.0244 µg/mL | – | 0.0295 µg/mL | 0.028 µg/mL | – | –
7 | fp.003 (antibody, V domains shown) VH: VQLVESGGGVVQPGTSLRLSCTASGFSFSNYAMHWVRQAPGKGLEWVAIISFDTRNKEFADSVKGRFSISRDNSKNSLNLQMNSLRPEDTGVYYCARDLFLSDYDSRGYEPSRGGFDYWGQGTLVTVSS VL: EIVMTQSPATLSVSPGERATLSCRASQSVSSSLAWYQQKLGQPPRLLIYGASTRATGIPARFSGSGSGTEFTLTISSLKSEDSAVYYCQQYNDWPLLSFGGGTKVEIK | – | – | – | – | – | 0.0201 µg/mL | 0.0238 µg/mL | – | 0.0349 µg/mL | 0.0249 µg/mL | 0.0149 µg/mL | 0.0285 µg/mL | 0.0369 µg/mL | 0.0295 µg/mL | – | –
8 | fp.009 (antibody, V domains shown) VH: VQLVESGGGVVQPGTSLTLSCEASGFTFSNYAMHWVRQAPGKGLEWVAIISFDTRNKKFAGSVQGRFSISRDNAKNSIYLQMNNLRPEDTGIYYCARDVFLSDYDSRGFDRTRGGFDYWGQGTLVTVSS VL: EIVMTQSPATLSVSPGEKATLSCRASESVGSSLAWYQQKLGQAPRLLIYGASTRATGIPARFSGSGSGAEFTLTISSLQSEDFAIYYCQQYGDWPLLTFGGGTKVEIK | – | – | – | – | – | 0.0236 µg/mL | 0.0241 µg/mL | 0.0276 µg/mL | 0.0346 µg/mL | 0.0214 µg/mL | 0.026 µg/mL | 0.0251 µg/mL | 0.038 µg/mL | – | 0.021 µg/mL | –
9 | hr2.012 (antibody, V domains shown) VH: QVQLVQSGAEVKKPGASVKVSCKASGYTFTSHYIHWVRQAPGQGLEWMGIIKPSGGNTIYAQTFQGRVTMTRDTSTSTVYMELRSLTSDDTAVYYCARDQDHGLQRWGQGTLVTVSS VL: QSVLTQPPSVSAPPGQKVTISCSGSSSNIGNNFVSWYQQLPGTAPKLLIYDNIERPSGIPDRFSGSRSGTSATLGITGLQTGDEADYYCGTWDTSLGAWVFGGGTKVTVL | 0.0184 µg/mL | 0.0204 µg/mL | – | 0.0177 µg/mL | 0.0196 µg/mL | – | – | – | – | – | – | – | – | – | – | 0.023 µg/mL
10 | hr2.013 (antibody, V domains shown) VH: QVQLVQSGAEVKKPGASVKISCKASGYTFTNNYMNWVRQAPGQGLEWMGIIKPSSGSTIYAHKFQGRVTMTRDTSTSTVYMEVRSLTSEDTAVYYCARDQDHGLQNWGQGTLVTVSS VL: QSVLTQPPSVSAASGQKVTIYCSGSSSNIASNFVSWYQQFPGTAPKLLIYDNNQRPSGIPDRFSGSRSGTSATLGITGLQTGDEADYYCGTWDTSLGAWVFGGGTKLTVL | 0.0181 µg/mL | 0.0292 µg/mL | – | 0.043 µg/mL | 0.0317 µg/mL | – | – | – | – | – | – | – | – | – | – | 0.042 µg/mL
11 | hr2.015 (antibody, V domains shown) VH: QVQLVQSGAEVKKPGASVKVSCKASGYTFSSYYVNWVRQAPGQGLEWLGIINRSGSSTIYAQKFQGRVTMTRDTSTSTVYLELSSLRSEDTAVYYCARDQDHALHWGQGTLVTVSS VL: QSVLTQPPSVSAAPGQKVTISCSGSSSNIGSNYVSWYQQLPGTAPKLLIYDNSERPSGIPDRFSGSRSGTSATLGITGLQTGDEADYYCGTWDTSLSAWVFGGGTKLTVL | 0.05 µg/mL | 0.0467 µg/mL | – | 0.0543 µg/mL | 0.047 µg/mL | – | – | – | – | – | – | – | – | – | – | 0.0731 µg/mL
